Measured values as given in PMC2777448 (Nucleic Acids Research, 2009).

Assays:
Test in all cases: pull-down
(His)9-tagged srs2 1–998 = target: T1, (His)9-tagged srs2 1–998 (S. cerevisiae, UniProt P12954 1-998)
T1 sequence: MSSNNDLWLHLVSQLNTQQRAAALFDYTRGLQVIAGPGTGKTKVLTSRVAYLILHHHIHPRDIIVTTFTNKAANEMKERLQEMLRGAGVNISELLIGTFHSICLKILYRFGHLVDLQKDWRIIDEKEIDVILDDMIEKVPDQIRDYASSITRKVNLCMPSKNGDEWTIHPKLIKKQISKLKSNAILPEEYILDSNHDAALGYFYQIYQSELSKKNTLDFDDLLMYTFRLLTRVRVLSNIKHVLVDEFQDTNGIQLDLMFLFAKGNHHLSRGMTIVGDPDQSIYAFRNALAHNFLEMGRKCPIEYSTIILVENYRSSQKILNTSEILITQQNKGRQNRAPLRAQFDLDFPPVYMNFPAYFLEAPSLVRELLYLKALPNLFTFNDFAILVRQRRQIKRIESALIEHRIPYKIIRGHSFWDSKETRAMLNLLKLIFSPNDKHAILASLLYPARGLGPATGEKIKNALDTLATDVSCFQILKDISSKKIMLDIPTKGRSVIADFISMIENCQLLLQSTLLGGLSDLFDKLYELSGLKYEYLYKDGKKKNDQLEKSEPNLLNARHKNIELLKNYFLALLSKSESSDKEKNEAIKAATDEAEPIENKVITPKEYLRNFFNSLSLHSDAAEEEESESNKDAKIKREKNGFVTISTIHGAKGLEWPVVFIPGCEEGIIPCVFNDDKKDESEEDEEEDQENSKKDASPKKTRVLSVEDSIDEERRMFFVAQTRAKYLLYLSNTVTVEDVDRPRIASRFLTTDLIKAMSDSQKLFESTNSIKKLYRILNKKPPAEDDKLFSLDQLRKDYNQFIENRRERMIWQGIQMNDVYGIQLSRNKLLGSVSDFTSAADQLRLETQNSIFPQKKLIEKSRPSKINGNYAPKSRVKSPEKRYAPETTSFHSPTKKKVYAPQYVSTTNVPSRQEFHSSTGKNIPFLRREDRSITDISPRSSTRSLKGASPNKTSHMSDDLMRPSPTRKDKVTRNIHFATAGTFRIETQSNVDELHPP

(His)9-tagged srs2 1–910 = target: T2, (His)9-tagged srs2 1–910 (S. cerevisiae, UniProt P12954 1-910)
T2 sequence: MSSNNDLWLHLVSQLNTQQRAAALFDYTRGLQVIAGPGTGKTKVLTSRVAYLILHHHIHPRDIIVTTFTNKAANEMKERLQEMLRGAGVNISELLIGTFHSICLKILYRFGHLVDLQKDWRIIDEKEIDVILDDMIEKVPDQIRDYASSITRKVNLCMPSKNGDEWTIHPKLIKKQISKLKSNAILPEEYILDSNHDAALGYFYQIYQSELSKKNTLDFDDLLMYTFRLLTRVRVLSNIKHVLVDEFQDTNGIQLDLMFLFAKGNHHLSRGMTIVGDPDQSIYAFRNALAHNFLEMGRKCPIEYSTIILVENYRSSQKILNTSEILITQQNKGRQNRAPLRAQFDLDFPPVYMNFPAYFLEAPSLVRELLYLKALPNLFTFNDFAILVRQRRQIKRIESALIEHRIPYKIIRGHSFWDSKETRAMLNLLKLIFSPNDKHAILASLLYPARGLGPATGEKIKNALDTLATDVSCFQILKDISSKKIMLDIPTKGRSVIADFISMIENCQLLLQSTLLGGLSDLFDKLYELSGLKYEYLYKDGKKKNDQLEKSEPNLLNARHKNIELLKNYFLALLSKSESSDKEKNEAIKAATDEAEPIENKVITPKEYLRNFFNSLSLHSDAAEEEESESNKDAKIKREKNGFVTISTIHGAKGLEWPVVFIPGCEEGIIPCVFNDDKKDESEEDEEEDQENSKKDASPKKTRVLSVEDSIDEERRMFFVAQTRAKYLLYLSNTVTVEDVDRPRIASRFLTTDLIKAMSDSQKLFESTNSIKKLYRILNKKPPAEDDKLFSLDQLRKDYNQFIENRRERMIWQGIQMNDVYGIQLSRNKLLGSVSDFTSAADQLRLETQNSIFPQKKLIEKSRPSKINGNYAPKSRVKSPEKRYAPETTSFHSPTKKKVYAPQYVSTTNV

[1] = target: T3, (His)9-tagged full length Srs2 (S. cerevisiae, UniProt P12954 1-1174)
T3 sequence: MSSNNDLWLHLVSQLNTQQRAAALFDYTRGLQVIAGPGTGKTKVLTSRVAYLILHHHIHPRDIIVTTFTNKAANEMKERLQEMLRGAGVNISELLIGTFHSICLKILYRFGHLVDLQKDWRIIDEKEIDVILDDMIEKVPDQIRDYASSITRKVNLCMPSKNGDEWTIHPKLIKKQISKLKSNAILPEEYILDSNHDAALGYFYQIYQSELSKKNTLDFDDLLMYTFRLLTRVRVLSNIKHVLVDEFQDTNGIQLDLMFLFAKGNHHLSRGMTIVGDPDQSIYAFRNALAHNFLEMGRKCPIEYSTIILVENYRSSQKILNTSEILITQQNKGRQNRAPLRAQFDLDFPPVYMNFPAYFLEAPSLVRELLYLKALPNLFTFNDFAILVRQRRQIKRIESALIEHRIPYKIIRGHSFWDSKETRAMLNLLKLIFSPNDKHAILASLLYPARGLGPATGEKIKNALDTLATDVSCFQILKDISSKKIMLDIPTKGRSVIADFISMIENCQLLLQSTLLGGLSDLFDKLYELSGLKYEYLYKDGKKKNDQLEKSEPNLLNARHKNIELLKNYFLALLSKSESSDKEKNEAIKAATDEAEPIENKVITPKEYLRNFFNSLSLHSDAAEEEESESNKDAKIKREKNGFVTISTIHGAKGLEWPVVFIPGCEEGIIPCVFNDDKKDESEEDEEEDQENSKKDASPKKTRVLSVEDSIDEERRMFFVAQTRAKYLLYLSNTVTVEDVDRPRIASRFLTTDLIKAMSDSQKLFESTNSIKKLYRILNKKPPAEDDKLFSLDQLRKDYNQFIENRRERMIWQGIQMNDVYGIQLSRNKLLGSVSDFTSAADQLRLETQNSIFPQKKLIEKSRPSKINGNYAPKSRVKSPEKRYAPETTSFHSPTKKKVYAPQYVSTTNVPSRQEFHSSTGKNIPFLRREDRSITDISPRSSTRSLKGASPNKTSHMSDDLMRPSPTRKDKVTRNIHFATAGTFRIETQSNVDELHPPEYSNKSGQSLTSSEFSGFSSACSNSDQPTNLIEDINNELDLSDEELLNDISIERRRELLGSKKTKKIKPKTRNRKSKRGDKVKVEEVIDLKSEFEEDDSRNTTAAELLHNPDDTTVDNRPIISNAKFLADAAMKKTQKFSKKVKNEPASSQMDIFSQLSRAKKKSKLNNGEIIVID

(His)9-tagged srs2 1–890 = target: T4, (His)9-tagged srs2 1–890 (S. cerevisiae, UniProt P12954 1-890)
T4 sequence: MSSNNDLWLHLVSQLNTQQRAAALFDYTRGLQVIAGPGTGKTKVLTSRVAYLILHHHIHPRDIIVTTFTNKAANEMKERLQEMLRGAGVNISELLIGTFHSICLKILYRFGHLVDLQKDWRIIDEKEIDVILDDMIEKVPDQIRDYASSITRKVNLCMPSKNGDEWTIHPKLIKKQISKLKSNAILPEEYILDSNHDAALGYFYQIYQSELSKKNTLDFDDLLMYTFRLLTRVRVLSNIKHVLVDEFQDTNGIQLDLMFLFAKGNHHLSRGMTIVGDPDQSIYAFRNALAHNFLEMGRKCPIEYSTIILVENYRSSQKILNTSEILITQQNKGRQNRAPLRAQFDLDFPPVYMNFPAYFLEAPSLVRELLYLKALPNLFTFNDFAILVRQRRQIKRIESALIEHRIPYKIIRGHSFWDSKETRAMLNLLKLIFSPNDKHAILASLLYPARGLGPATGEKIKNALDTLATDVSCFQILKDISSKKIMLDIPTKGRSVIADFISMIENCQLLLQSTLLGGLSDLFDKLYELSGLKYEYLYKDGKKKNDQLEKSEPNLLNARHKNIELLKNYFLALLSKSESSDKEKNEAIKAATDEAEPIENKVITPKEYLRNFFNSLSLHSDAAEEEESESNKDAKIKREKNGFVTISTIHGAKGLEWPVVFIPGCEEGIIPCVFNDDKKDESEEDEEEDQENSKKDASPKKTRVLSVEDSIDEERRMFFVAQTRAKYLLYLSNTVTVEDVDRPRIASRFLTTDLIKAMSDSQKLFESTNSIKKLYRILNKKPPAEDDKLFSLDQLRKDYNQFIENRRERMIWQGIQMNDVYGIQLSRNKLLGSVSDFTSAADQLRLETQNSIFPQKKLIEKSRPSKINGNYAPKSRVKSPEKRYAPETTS

Measured: binding result

B1: Rad51 (natural protein)
chain: MSQVQEQHISESQLQYGNGSLMSTVPADLSQSVVDGNGNGSSEDIEATNGSGDGGGLQEQAEAQGEMEDEAYDEAALGSFVPIEKLQVNGITMADVKKLRESGLHTAEAVAYAPRKDLLEIKGISEAKADKLLNEAARLVPMGFVTAADFHMRRSELICLTTGSKNLDTLLGGGVETGSITELFGEFRTGKSQLCHTLAVTCQIPLDIGGGEGKCLYIDTEGTFRPVRLVSIAQRFGLDPDDALNNVAYARAYNADHQLRLLDAAAQMMSESRFSLIVVDSVMALYRTDFSGRGELSARQMHLAKFMRALQRLADQFGVAVVVTNQVVAQVDGGMAFNPDPKKPIGGNIMAHSSTTRLGFKKGKGCQRLCKVVDSPCLPEAECVFAIYEDGVGDPREEDE
binds: (His)9-tagged srs2 1–998 | (His)9-tagged srs2 1–910 | [1] | (His)9-tagged srs2 1–890
